# Data taken from patent US10428308B2, “Mesoderm and definitive endoderm cell populations” (Icahn School of Medicine at Mount Sinai, priority 2005, dated 2019).
# Test system: GFP-Bry ES cells / EBs
# Assay: Activin induction of brachyury (GFP) in serum-free EB cultures, FACS
# Type: cell-based, mouse
# Procedure: A) FACS profile showing GFP expression in day 6 EBs differentiated in the presence of 100 ng/ml of activin. B) Kinetics of GFP induction in cultures containing 100 ng/ml of activin. Open circles are EB differentiated in the presence of activin, closed squares are EBs differentiated in absence of activin. C) RT-PCR expression analysis of indicated genes in day 6 EBs grown in the presence (+activin) or absence (−activin) of activin. Numbers indicate day of EB differentiation.
# FIGS. 23A and 23B show the effects of different concentrations of activin on the developmental potential of EBs. A) GFP expression in day 7 EBs induced with different concentrations of activin. B) RT-PCR expression analysis of day 7 EBs induced with different concentrations of activin.
# To further enrich for cells with endodermal potential, the effects of growth factors known to induce this cell population in other model systems were tested. Studies in Xenopus have shown that activin will induce both mesoderm and endoderm from ectoderm in culture. Of particular interest was the observation that activin behaved as a morphogen in this model in that it induced different cell types at different concentrations used. […] ES cells were differentiated for 2 days in Stem Pro 34 medium without serum. At this stage, the developing EBs were harvested and recultured in IMDM supplemented with serum replacement (serum free) and activin at a concentration of 100 ng/ml. EBs were harvested at different days and assayed for GFP^+ expression and expression of genes indicative of ectoderm, mesoderm and endoderm development. […] While the kinetics of GFP induction was delayed compared to EBs differentiated in serum, this concentration of activin did induce substantial numbers of brachyury positive cells (60%) by day 6 of differentiation. […] Induction of pdx-1 is of interest, as this gene is essential for pancreas development. Genes associated with hematopoietic development, such as GATA-1 and those indicative of neuroectoderm differentiation such as PAX6 were not induced by activin.
# As little as 1 ng/ml of activin induced GFP^+ expression (10% of the total population) by 7 days of culture (FIG. 23A). The frequency of GFP^+ cells increased to 40% in cultures stimulated with 3 ng/ml and reached plateau levels of greater than 50% at 30 ng/ml. […] HNF3β, Sox17, Hex-1 were all induced in cultures stimulated with 10, 30, or 100 ng/ml of activin. Pdx-1 expression required the highest amount of activin and was induced best in EBs stimulated with 100 ng/ml. Neither GATA1 nor c-fms was expressed at any concentration of activin.
molecule,measurement,setting,value
"activin: growth factor purchased from R&D systems; induces mesoderm and endoderm (protein, UniProt P08476 311-426, looked up) Inhibin beta A chain: GLECDGKVNICCKKQFFVSFKDIGWNDWIIAPSGYHANYCEGECPSHIAGTSGSSLSFHSTVINHYRMRGHSPFANLKSCCVPTKLRPMSMLYYDDGQNIIKKDIQNMIVEECGCS",GFP^+ expression (% of the total population),"activin 1 ng/ml, 7 days of culture",10%
same,frequency of GFP^+ cells,"activin 3 ng/ml, day 7",40%
same,"frequency of GFP^+ cells, plateau level","activin 30 ng/ml, day 7",greater than 50%
same,brachyury positive cells (GFP),"activin 100 ng/ml, serum free, day 6 of differentiation",60%
